Assay results as given in article PMC9482650, “Quantitative fragmentomics allow affinity mapping of interactomes” (Nature Communications, 2022).

Legend:
Test in all cases: holdup assay
Parameters in all cases: key: below the threshold = too weak to quantify, mostly under pKd 3.1 to 4
NHERF4_2, Q86UT5 = target: NHERF4_2, Q86UT5
GRID2IP_1, A4D2P6 = target: GRID2IP_1, A4D2P6
RAPGEF6, Q8TEU7 = target: T1, RAPGEF6, Q8TEU7
T1 sequence (Q8TEU7 525-625, limits assumed, looked up): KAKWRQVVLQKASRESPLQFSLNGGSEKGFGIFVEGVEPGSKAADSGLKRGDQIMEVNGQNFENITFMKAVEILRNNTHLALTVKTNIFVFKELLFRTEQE

PDZRN3_1, Q9UPQ7 = target: T2, PDZRN3_1, Q9UPQ7
T2 sequence (Q9UPQ7 244-349, limits assumed, looked up): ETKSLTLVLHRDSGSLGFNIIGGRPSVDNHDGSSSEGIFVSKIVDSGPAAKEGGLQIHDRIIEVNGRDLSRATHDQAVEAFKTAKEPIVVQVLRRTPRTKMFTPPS

TJP1_3, Q07157 = target: TJP1_3, Q07157
Sequence of TJP1_3, Q07157 (Q07157 416-512): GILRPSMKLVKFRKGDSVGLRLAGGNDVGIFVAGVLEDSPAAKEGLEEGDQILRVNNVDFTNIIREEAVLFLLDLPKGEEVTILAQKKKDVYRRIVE

AHNAK1, Q09666 = target: AHNAK1, Q09666
Sequence of AHNAK1, Q09666 (Q09666 4-100): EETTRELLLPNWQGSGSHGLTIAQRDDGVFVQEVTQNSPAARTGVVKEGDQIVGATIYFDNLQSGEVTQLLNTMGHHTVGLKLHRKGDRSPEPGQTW

MPDZ_5, O75970 = target: T3, MPDZ_5, O75970
T3 sequence (O75970 695-796, limits assumed, looked up): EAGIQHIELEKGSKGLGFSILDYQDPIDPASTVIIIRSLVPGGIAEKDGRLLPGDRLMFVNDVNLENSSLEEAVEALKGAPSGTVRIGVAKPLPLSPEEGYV

SIPA1L2, Q9P2F8 = target: T4, SIPA1L2, Q9P2F8
T4 sequence (Q9P2F8 945-1036, limits assumed, looked up): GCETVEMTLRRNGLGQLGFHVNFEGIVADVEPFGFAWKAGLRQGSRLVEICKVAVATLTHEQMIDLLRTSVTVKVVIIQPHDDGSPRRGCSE

DLG3_2, Q92796 = target: T5, DLG3_2, Q92796
T5 sequence (Q92796 221-321, limits assumed, looked up): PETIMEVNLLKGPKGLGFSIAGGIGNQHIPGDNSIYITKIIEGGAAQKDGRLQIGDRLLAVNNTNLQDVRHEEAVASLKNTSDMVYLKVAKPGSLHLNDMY

Inadl_3, Q8NI35 = target: Inadl_3, Q8NI35
Sequence of Inadl_3, Q8NI35 (Q8NI35 359-469): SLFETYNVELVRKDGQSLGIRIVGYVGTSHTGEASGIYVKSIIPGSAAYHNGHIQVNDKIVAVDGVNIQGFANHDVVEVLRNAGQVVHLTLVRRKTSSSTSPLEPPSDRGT

DFNB31_1, Q9P202 = target: T6, DFNB31_1, Q9P202
T6 sequence (Q9P202 135-233, limits assumed, looked up): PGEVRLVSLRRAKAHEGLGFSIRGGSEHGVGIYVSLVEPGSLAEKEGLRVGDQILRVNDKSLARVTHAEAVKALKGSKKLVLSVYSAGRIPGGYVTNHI

DLG3_1, Q92796 = target: T7, DLG3_1, Q92796
T7 sequence (Q92796 125-227, limits assumed, looked up): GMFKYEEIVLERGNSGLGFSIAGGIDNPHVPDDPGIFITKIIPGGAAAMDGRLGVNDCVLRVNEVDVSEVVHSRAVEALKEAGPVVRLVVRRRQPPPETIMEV

DLG1_3, Q12959 = target: DLG1_3, Q12959
Sequence of DLG1_3, Q12959 (Q12959 457-571): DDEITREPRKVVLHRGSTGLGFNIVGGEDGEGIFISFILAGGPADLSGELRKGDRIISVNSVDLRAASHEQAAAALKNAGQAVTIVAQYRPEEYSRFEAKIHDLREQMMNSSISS

LIN7B, Q9HAP6 = target: T8, LIN7B, Q9HAP6
T8 sequence (Q9HAP6 88-185, limits assumed, looked up): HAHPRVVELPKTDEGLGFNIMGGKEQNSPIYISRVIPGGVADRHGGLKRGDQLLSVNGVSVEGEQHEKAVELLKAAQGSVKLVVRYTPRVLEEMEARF

MPDZ_10, O75970 = target: T9, MPDZ_10, O75970
T9 sequence (O75970 1624-1722, limits assumed, looked up): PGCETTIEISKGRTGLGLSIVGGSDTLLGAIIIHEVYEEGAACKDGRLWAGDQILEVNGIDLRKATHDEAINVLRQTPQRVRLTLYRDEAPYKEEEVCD

LDB3, O75112 = target: LDB3, O75112
Sequence of LDB3, O75112 (O75112 1-94): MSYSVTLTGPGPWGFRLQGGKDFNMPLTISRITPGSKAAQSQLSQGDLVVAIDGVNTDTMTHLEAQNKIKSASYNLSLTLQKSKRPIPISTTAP

NHERF3_3, Q5T2W1 = target: T10, NHERF3_3, Q5T2W1
T10 sequence (Q5T2W1 238-333, limits assumed, looked up): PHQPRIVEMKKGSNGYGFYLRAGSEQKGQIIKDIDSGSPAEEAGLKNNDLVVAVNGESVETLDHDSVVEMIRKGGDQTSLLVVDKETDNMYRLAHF

SCRIB_1, Q14160 = target: SCRIB_1, Q14160
Sequence of SCRIB_1, Q14160 (Q14160 718-814): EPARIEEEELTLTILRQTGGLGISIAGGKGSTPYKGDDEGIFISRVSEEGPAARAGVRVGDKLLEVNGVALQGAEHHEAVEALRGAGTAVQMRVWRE

SNTG2, Q9NY99 = target: T11, SNTG2, Q9NY99
T11 sequence (Q9NY99 68-166, limits assumed, looked up): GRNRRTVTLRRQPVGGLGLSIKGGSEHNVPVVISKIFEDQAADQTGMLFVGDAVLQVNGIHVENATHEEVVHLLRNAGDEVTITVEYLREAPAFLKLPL

MPDZ_12, O75970 = target: T12, MPDZ_12, O75970
T12 sequence (O75970 1857-1958, limits assumed, looked up): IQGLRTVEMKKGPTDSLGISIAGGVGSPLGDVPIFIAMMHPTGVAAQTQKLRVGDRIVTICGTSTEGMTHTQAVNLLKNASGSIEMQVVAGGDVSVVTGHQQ

NHERF4_4, Q86UT5 = target: NHERF4_4, Q86UT5
Sequence of NHERF4_4, Q86UT5 (Q86UT5 464-550): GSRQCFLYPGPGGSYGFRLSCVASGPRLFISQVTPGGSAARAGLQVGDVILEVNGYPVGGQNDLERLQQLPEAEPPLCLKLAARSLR

Inadl_5, Q8NI35 = target: Inadl_5, Q8NI35
Sequence of Inadl_5, Q8NI35 (Q8NI35 673-780): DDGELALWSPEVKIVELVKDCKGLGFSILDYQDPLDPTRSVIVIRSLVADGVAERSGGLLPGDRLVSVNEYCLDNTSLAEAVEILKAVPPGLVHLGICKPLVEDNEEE

FRMPD2_3, Q68DX3 = target: FRMPD2_3, Q68DX3
Sequence of FRMPD2_3, Q68DX3 (Q68DX3 1073-1166): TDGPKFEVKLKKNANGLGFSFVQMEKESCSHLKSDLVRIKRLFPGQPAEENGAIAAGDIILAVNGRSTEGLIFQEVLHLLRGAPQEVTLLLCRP

SNX27, Q96L92 = target: SNX27, Q96L92
[1] = plain residues with an end cap or a label only (N-terminal biotin on a linker: ado-ado)
[2] = plain residues with an end cap or a label only (N-terminal biotin on a linker: (peg)3)

Sequence of NHERF4_2, Q86UT5 (Q86UT5 220-308): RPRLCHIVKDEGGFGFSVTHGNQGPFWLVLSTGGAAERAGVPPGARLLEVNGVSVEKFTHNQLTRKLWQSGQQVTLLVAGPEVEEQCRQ
Sequence of GRID2IP_1, A4D2P6 (A4D2P6 1-87): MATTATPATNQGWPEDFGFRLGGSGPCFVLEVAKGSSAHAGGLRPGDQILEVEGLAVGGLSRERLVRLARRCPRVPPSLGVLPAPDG

Binder: PPGKHLVTEV [KCNA7, Q96RP8]
- pKd (NHERF4_2, Q86UT5; [1]): below the threshold
- pKd (GRID2IP_1, A4D2P6; [1]): below the threshold
- pKd (RAPGEF6, Q8TEU7; [1]): 3.52
- pKd (PDZRN3_1, Q9UPQ7; [1]): below the threshold
- pKd (TJP1_3, Q07157; [1]): below the threshold
- pKd (AHNAK1, Q09666; [1]): below the threshold
- pKd (MPDZ_5, O75970; [1]): below the threshold
- pKd (SIPA1L2, Q9P2F8; [1]): below the threshold
- pKd (DLG3_2, Q92796; [1]): 5.19
- pKd (Inadl_3, Q8NI35; [1]): 3.7
- pKd (DFNB31_1, Q9P202; [1]): below the threshold
- pKd (DLG3_1, Q92796; [1]): 4.21
- pKd (DLG1_3, Q12959; [1]): 4.09
- pKd (LIN7B, Q9HAP6; [1]): 3.97
- pKd (MPDZ_10, O75970; [1]): below the threshold
- pKd (LDB3, O75112; [1]): below the threshold
- pKd (NHERF3_3, Q5T2W1; [1]): below the threshold
- pKd (SCRIB_1, Q14160; [1]): 4.72
- pKd (SNTG2, Q9NY99; [1]): below the threshold
- pKd (MPDZ_12, O75970; [1]): 3.88
- pKd (NHERF4_4, Q86UT5; [1]): below the threshold
- pKd (Inadl_5, Q8NI35; [1]): below the threshold
- pKd (FRMPD2_3, Q68DX3; [1]): below the threshold
- pKd (SNX27, Q96L92; [1]): 4.95

Binder: DDASLPVSDV [PLEKHA1, Q9HB21]
- pKd (NHERF4_2, Q86UT5; [1]): below the threshold
- pKd (GRID2IP_1, A4D2P6; [1]): below the threshold
- pKd (RAPGEF6, Q8TEU7; [1]): below the threshold
- pKd (PDZRN3_1, Q9UPQ7; [1]): below the threshold
- pKd (TJP1_3, Q07157; [1]): below the threshold
- pKd (AHNAK1, Q09666; [1]): below the threshold
- pKd (MPDZ_5, O75970; [1]): below the threshold
- pKd (SIPA1L2, Q9P2F8; [1]): below the threshold
- pKd (DLG3_2, Q92796; [1]): below the threshold
- pKd (Inadl_3, Q8NI35; [1]): below the threshold
- pKd (DFNB31_1, Q9P202; [1]): 3.75
- pKd (DLG3_1, Q92796; [1]): below the threshold
- pKd (DLG1_3, Q12959; [1]): below the threshold
- pKd (LIN7B, Q9HAP6; [1]): below the threshold
- pKd (MPDZ_10, O75970; [1]): 3.91
- pKd (LDB3, O75112; [1]): below the threshold
- pKd (NHERF3_3, Q5T2W1; [1]): below the threshold
- pKd (SCRIB_1, Q14160; [1]): below the threshold
- pKd (SNTG2, Q9NY99; [1]): 4.48
- pKd (MPDZ_12, O75970; [1]): below the threshold
- pKd (NHERF4_4, Q86UT5; [1]): below the threshold
- pKd (Inadl_5, Q8NI35; [1]): below the threshold
- pKd (FRMPD2_3, Q68DX3; [1]): below the threshold
- pKd (SNX27, Q96L92; [1]): below the threshold

Binder: ELSATVTTDC [TRIP6, Q15654]
- pKd (NHERF4_2, Q86UT5; [1]): below the threshold
- pKd (GRID2IP_1, A4D2P6; [1]): below the threshold
- pKd (RAPGEF6, Q8TEU7; [1]): below the threshold
- pKd (PDZRN3_1, Q9UPQ7; [1]): below the threshold
- pKd (TJP1_3, Q07157; [1]): below the threshold
- pKd (AHNAK1, Q09666; [1]): below the threshold
- pKd (MPDZ_5, O75970; [1]): below the threshold
- pKd (SIPA1L2, Q9P2F8; [1]): below the threshold
- pKd (DLG3_2, Q92796; [1]): 4.23
- pKd (Inadl_3, Q8NI35; [1]): below the threshold
- pKd (DFNB31_1, Q9P202; [1]): 3.81
- pKd (DLG3_1, Q92796; [1]): below the threshold
- pKd (DLG1_3, Q12959; [1]): 4.02
- pKd (LIN7B, Q9HAP6; [1]): below the threshold
- pKd (MPDZ_10, O75970; [1]): below the threshold
- pKd (LDB3, O75112; [1]): 3.72
- pKd (NHERF3_3, Q5T2W1; [1]): 3.87
- pKd (SCRIB_1, Q14160; [1]): 4.48
- pKd (SNTG2, Q9NY99; [1]): 3.79
- pKd (MPDZ_12, O75970; [1]): below the threshold
- pKd (NHERF4_4, Q86UT5; [1]): below the threshold
- pKd (Inadl_5, Q8NI35; [1]): below the threshold
- pKd (FRMPD2_3, Q68DX3; [1]): below the threshold
- pKd (SNX27, Q96L92; [1]): 4.57

Binder: QQSMSSADSTQA [SARS-Cov2-N, P0DTC9]
- pKd (NHERF4_2, Q86UT5; [2]): below the threshold
- pKd (GRID2IP_1, A4D2P6; [2]): below the threshold
- pKd (RAPGEF6, Q8TEU7; [2]): below the threshold
- pKd (PDZRN3_1, Q9UPQ7; [2]): below the threshold
- pKd (TJP1_3, Q07157; [2]): below the threshold
- pKd (AHNAK1, Q09666; [2]): below the threshold
- pKd (MPDZ_5, O75970; [2]): below the threshold
- pKd (SIPA1L2, Q9P2F8; [2]): below the threshold
- pKd (DLG3_2, Q92796; [2]): below the threshold
- pKd (Inadl_3, Q8NI35; [2]): below the threshold
- pKd (DFNB31_1, Q9P202; [2]): below the threshold
- pKd (DLG3_1, Q92796; [2]): below the threshold
- pKd (DLG1_3, Q12959; [2]): below the threshold
- pKd (LIN7B, Q9HAP6; [2]): below the threshold
- pKd (MPDZ_10, O75970; [2]): below the threshold
- pKd (LDB3, O75112; [2]): below the threshold
- pKd (NHERF3_3, Q5T2W1; [2]): below the threshold
- pKd (SCRIB_1, Q14160; [2]): below the threshold
- pKd (SNTG2, Q9NY99; [2]): below the threshold
- pKd (MPDZ_12, O75970; [2]): below the threshold
- pKd (NHERF4_4, Q86UT5; [2]): below the threshold
- pKd (Inadl_5, Q8NI35; [2]): below the threshold
- pKd (FRMPD2_3, Q68DX3; [2]): below the threshold
- pKd (SNX27, Q96L92; [2]): below the threshold
